According to patent EP4302836A1 (Danmarks Tekniske Universitet, dated 2024):

B1: TPL0039_05_G08 IgG (antibody, V domains shown)
VH: EVQLVESGGGVVQPGRSLRLSCAASGFTFSSYGMHWVRQAPGKGLEWVAVISYDGSNKYYADSVKGRFTISRDNSKNTLYLQMNSLRAEDTAVYYCARTNYDSGDAFDIWGQGTLVTVSS
VL: NFMLTQPHSVSESPGKTVTISCTRSSGSIASNYVQWYQQRPGSSPTTVIYEDNQRPSGVPDRFSGSIDSSSNSASLTISGLKTEDEADYYCQSYDSSTVVFGGGTKLTVLG
B2: TPL0039_05_A03 IgG (antibody, V domains shown)
VH: QVQLVESGGGLAKPGRSLRLSCAVSGFTFSSYGMHWVRQAPGKGLEWVAVISYDGSNKYYADSVKGRFTISRDNSKNTLYLQMNSLRAEDTAVYYCASTLQQLDAFDIWGQGTMVTVSS
VL: NFMLTQPHSVSESPGKTITISCTRSSGSIASNYVQWYQQRPGSVPTPVIYEDDRRPSGVPDRFSGSIDSSSNSASLTISGLKTEDEADYYCQSYDSSSVVFGGGTKITVLG
B3: TPL0039_05_F04 scFv (scFv, V domains shown)
VH: QVQLVESGGGVVQPGRSPRLSCAASGFTFSSYGMHWVRQAPGKGLEWVAVISYDGSNKYYADSVKGRFTISRDNSKNTLYLQMNSLRAEDTAVYYCAKDLEYSSSSWGQGTLVTVSS
VL: NFMLTQPHSVSESPGKTVTISCTRSSGSIASNYVQWFQQRPGSSPTTVIYEDDQRPSGVPDRFSGSIDSSSNSASLTISGLKTEDEATYFCQSYDSSTVVFGGGTKVTVLG
B4: TPL0039_05_B04 IgG (antibody, V domains shown)
VH: EVQLLESGGGVVQPGRSLRLSCAASGFTFSSYGMHWVRQAPGKGLEWVAVISYDGSNKYYADSVKGRFTISRDNSKNTLYLQMNSLRAEDTAVYYCARVGENEAFDIWGQGTMVTVSS
VL: NFMLTQPHSVSESPGKTVTISCTRSSGSIARNYVQWYQQRPGSAPTTVIYEDNQRPSGVPDRFSGSIDSSSNSASLTISGLKTEDEADYYCQSYDSSTVVFGGGTKLTVLG
B5: TPL0039_05_B12 IgG (antibody, V domains shown)
VH: EVQLVESGGGVVQPGRSLRLSCAASGFTFSSYGMHWVRQAPGKGLEWVAVISYDGSNKYYADSVKGRFTISRDNSKNTLYLQMNSLRAEDTAVYYCAGWTEGDAFDIWGQGTLVTVSS
VL: NFMLTQPHSVSESPGKTVTISCTRSSGSIASNYVQWYQQRPGSAPSTVIYEDNRRPSGVPDRFSGSIDSASNSASLTISGLKTEDEADYYCQSYDSSSVVFGGGTKITVLG
B6: TPL0039_05_F04 IgG (antibody, V domains shown)
VH: QVQLVESGGGVVQPGRSPRLSCAASGFTFSSYGMHWVRQAPGKGLEWVAVISYDGSNKYYADSVKGRFTISRDNSKNTLYLQMNSLRAEDTAVYYCAKDLEYSSSSWGQGTLVTVSS
VL: NFMLTQPHSVSESPGKTVTISCTRSSGSIASNYVQWFQQRPGSSPTTVIYEDDQRPSGVPDRFSGSIDSSSNSASLTISGLKTEDEATYFCQSYDSSTVVFGGGTKVTVLG

What was measured:
[1] = molecular target: T1, Myotoxin II from Bothrops asper (Basic phospholipase A2 homolog 2, Uniprot P24605) (Bothrops asper, UniProt P24605 17-137); assay: cell-based or functional assay
[2] = molecular target: T1, Myotoxin II from Bothrops asper (Basic …); assay: expression-normalized capture (ENC) assay, antigen at 10 nM (data not shown)
[3] = molecular target: T1, Myotoxin II from Bothrops asper (Basic …); assay: monoclonal IgG ELISA, dilution series (Fig. 2A legend)

T1 sequence (P24605 17-137, one chain of several): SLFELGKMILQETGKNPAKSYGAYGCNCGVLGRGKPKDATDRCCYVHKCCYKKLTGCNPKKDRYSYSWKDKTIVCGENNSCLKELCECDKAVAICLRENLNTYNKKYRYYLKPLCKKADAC

Row | Binder | fibroblast viability assay (CellTiter-Glo), toxin:IgG ratio for full neutralization [1] | also measured
1 | B1 | 1 mol IgG per mol toxin (printed as toxin:IgG 1:1) | –
2 | B2 | 0.5 mol IgG per mol toxin (printed as toxin:IgG 1:0.5) | –
3 | B3 | – | binding result [2]: binds
4 | B4 | 0.5 mol IgG per mol toxin (printed as toxin:IgG 1:0.5) | –
5 | B5 | 0.5 mol IgG per mol toxin (printed as toxin:IgG 1:0.5) | –
6 | B6 | – | binding result [3]: binds
